Assay results as given in patent US20220235128A1.

molecular target: claudin 18.2 (isoform 2 subtype of CLDN18) (UniProt P56856); assay: FACS, 5 ug/ml antibody on dissociated GA0006 gastric cancer PDX tumor cells, PE anti-human IgG Fc

Ratio of antibody-bound cells [%]	Molecule
85.6	IMAB362 (Claudiximab) (antibody)
91.5	QP190191 (antibody, V domains shown) VH: EVKLVESGGGLVKPGGSLKLSCAASGFTFSNYAMSWVRQTPEKRLEWVASIISGGRTYYLDSEKGRFTISRDNARNNLYLQMSSLRSEDTAMYYCTRIYYGNSFDYWGQGTTLTVSS VL: DIVMTQSPSSQTVTAGEKVTMSCKSSQSLLNSGNQKNYLTWYQQKPGQPPKLLIYWASTRESGVPDRFTGSGSGTDFTLTISNMQAEDLAVYYCQNDYSYPFTFGSGTKLEIK
90	QP201202 (antibody, V domains shown) VH: EVQLQQSGPELVKPGASVKMSCKASGYTFTNYFVHWVKQKPGQGLEWIGYINPYNDDTKYNEKFKGKATLTSDKSSSTAYMDLSSLTSEDSAVYYCLSLRFFAYWGQGTLVTVSA VL: DIVMTQSPSSLTVTAGEKVTMSCKSSQSLLNSGNQKNYLTWYQQKPGQAPKLLIYWASTRESGVPDRFIGSGSGTDFTLTISHVQAEDLAVYFCQNDYSYPLTFGAGTNLELK
92.4	QP192193 (antibody, V domains shown) VH: QVQLQQSGAELVRPGSSVKISCKASGYAFSSYWMNWVKQRPGQGLEWIGQIYPGNGDTTYNGKFKGQATLTADKSSSTVYMQLSSLTSEDSAVYFCARFVKGNAMDYWGQGTSVTVSS VL: DIVMTQSPSSLTVTAGEKVTMSCKSSQSLLNSGNQKNYLTWYQQNPGQPPKMLIYWASTRESGVPDRFTGSGSGIDFSLTISSVQAEDLALYYCQNAYSYPFTFGSGTKLEIK
91.7	QP207208 (antibody, V domains shown) VH: EVQLQQSGPELVKPGASVKMSCKASGYTFTSYIMHWVKQKPGQGLEWIGYINPYNDGTKYNEKFKGKATLTSDKSSSTVYMELSSLTSEDSAVYCCARLGFTTRNAMDYWGQGTSVTVSS VL: DIVMTQSPSSLSVSAGEKVTMNCKSSQSLLNSGNQKNYLAWYQQKPGQPPKLLIYGASTRESGVPDRFTGSGSGTDFTLTISSVQAEDLAVYYCQNDHSYPFTFGSGTKLEIK
